According to patent US20250092148A1 (Kyowa Kirin, published 2025):

B1: anti-CD131 antibody 131-B2, Fab (Fab, V domains shown)
VH: QVQLVQSGAEVKEPGASVKISCKASGYTFTNDYMHWVRQAPGQGLEWMGIINPTGGGTSYAQKFRGRVTMTRDTSTSTVYMELSSLRSEDTAVFYCARERYYGSGTYFNIGLWYFDLWGRGTLVTVSS
VL: not shown
notes: Fab made from the antibody by an enzyme treatment
B2: anti-CD116 antibody 116-408, Fab (Fab, V domains shown)
VH: EVQLVQSGAEVKKPGASVKVSCKVSGYTLTDLSMHWVRQAPGKGLEWMGGFDPEDGERIYAQKFQGRVTMTEDTSTDTAYMELSSLRSEDTAVYYCATGLFYYYYGMDVWGQGTMVTVSS
VL: not shown

Key:
[1] = target: T1, human CD131 R221A (human, UniProt P32927 17-897); test: flow cytometry, Fab on HEK-293T cells expressing the mutant; labels of this column stand one row too low, mutant assigned after shifting them up (text: R221 is an epitope residue)
T1 construct: whole, on cells; also called R221 Ala substitution
T1 sequence (looked up): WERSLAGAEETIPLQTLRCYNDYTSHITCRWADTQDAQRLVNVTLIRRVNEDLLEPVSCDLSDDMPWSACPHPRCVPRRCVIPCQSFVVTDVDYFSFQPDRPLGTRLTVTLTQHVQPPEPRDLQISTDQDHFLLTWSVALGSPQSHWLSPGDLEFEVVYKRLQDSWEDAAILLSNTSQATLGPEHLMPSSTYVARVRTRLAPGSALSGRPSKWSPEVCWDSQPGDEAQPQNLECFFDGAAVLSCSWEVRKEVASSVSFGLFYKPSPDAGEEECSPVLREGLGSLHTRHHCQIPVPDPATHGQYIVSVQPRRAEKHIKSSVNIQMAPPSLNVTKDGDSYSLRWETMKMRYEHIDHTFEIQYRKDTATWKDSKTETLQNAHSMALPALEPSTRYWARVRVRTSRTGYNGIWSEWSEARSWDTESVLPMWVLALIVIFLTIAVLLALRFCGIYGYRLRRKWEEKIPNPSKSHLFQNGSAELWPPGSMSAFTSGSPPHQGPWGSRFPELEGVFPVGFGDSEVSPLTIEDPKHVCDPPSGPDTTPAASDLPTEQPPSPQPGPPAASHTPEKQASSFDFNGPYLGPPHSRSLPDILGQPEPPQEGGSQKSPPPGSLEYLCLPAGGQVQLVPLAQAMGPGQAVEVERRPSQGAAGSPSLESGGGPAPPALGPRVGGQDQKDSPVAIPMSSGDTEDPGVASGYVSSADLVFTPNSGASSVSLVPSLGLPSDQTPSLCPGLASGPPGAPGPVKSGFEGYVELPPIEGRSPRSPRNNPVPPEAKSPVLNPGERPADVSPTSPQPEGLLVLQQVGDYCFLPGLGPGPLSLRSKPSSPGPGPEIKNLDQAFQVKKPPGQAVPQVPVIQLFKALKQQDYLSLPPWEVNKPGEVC

[2] = target: T2, human CD116 N156A (human, UniProt P15509 23-400); test: flow cytometry, Fab 0.25 µg/mL on HEK-293T cells expressing the mutant
T2 construct: whole, on cells
T2 sequence (looked up): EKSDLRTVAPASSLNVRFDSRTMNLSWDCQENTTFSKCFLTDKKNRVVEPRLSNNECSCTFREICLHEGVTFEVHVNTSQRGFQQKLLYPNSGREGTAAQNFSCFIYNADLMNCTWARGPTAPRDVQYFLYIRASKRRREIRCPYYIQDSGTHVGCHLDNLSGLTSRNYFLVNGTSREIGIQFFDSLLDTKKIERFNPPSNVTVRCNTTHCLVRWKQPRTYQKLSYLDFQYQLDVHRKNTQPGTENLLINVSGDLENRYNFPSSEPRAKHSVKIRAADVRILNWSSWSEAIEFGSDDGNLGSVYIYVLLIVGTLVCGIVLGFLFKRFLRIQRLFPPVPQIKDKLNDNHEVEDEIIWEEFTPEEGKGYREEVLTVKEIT

[3] = target: T3, human CD116 K158A (human, UniProt P15509 23-400); test: as above
T3 construct: whole, on cells
T3 sequence (looked up): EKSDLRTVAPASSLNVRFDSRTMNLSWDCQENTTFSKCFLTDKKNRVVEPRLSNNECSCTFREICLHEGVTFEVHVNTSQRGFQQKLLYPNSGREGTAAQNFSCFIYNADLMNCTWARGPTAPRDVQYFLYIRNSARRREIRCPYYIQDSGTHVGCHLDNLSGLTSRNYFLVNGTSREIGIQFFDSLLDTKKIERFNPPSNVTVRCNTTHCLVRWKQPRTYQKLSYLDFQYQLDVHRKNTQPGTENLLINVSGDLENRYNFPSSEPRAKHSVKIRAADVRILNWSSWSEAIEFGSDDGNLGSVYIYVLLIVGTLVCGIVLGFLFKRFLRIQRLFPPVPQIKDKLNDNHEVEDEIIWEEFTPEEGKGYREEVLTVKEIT

[4] = target: T4, human CD116 K213A (human, UniProt P15509 23-400); test: as above
T4 construct: whole, on cells
T4 sequence (looked up): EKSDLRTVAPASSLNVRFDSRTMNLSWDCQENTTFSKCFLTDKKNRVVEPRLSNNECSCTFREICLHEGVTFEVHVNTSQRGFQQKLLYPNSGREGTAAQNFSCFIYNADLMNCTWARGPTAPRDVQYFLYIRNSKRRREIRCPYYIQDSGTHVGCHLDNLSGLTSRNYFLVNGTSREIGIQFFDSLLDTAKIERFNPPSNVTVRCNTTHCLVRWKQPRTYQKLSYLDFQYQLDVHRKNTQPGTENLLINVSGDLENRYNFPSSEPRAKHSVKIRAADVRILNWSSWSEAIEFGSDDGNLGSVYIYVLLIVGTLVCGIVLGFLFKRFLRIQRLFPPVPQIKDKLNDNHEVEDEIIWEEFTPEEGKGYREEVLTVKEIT

[5] = target: T5, human CD116 D300A (human, UniProt P15509 23-400); test: as above
T5 construct: whole, on cells
T5 sequence (looked up): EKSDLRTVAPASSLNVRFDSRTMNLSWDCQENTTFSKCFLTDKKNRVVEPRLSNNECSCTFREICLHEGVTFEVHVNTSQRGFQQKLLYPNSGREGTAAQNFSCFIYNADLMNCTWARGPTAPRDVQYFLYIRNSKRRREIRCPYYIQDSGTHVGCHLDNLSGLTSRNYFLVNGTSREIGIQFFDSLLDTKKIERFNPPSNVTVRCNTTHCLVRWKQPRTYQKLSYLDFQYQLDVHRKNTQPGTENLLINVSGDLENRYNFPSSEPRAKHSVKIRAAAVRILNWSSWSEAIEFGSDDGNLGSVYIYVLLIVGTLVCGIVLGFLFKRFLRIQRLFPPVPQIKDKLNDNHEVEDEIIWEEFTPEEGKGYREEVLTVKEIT

Binder | Binding Reactivity (% WT) [1] [% WT] | Binding Reactivity (% WT) [2] [% WT] | Binding Reactivity (% WT) [3] [% WT] | Binding Reactivity (% WT) [4] [% WT] | Binding Reactivity (% WT) [5] [% WT]
B1 | 38 |  |  |  | 
B2 |  | 5.8 | 35.2 | 98.4 | 84.8
